We go through three molecules from US20130230504A1 (CHILDREN S MEDICAL CENTER, published 2013).

Assay [1] addresses VEGF165 receptor (VEGF165R) (human) (UniProt O14786). Briefly: competition with 125I-VEGF165 (5 ng/ml) on HUVEC at 2 ug/ml GST-Ex 7, gamma counting.
The target is the same in assay [2]. Briefly: competition with 125I-VEGF165 (5 ng/ml) on MDA-MB-231 cells (VEGF165R only), increasing GST-Ex 7+8, gamma counting.
For assay [3] the target is unchanged. Briefly: competition with 125I-VEGF165 (5 ng/ml) on HUVEC (KDR/Flk-1 and VEGF165R), increasing GST-Ex 7+8, gamma counting.
Another assay addresses KDR/Flk-1 (human, UniProt P35968 20-1356). The experiment in a line: cell-based or functional assay.

Sequence of VEGF165 receptor (VEGF165R) (human) (O14786 22-923): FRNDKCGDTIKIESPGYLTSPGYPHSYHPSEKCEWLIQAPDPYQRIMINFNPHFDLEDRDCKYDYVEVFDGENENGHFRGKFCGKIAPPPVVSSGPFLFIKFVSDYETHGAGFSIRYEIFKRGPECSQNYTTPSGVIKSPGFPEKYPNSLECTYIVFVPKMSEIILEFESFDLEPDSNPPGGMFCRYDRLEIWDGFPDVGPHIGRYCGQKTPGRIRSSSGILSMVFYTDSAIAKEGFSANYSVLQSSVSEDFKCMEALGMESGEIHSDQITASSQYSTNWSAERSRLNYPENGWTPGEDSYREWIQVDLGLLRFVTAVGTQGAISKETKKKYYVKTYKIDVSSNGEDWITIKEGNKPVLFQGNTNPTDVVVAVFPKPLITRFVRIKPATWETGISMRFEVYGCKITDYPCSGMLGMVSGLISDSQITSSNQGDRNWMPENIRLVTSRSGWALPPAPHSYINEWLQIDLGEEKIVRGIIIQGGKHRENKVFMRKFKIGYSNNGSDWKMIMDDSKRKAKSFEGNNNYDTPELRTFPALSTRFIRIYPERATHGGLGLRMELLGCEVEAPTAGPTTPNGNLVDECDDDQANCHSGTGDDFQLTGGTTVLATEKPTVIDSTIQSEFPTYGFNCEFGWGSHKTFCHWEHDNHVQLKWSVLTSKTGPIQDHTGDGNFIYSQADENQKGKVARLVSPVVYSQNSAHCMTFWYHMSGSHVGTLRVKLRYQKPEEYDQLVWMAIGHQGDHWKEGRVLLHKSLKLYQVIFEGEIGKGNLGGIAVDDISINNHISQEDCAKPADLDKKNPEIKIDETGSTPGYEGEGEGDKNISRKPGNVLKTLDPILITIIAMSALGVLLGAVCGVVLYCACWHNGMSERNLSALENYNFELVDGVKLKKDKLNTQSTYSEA
Sequence of KDR/Flk-1 (P35968 20-1356): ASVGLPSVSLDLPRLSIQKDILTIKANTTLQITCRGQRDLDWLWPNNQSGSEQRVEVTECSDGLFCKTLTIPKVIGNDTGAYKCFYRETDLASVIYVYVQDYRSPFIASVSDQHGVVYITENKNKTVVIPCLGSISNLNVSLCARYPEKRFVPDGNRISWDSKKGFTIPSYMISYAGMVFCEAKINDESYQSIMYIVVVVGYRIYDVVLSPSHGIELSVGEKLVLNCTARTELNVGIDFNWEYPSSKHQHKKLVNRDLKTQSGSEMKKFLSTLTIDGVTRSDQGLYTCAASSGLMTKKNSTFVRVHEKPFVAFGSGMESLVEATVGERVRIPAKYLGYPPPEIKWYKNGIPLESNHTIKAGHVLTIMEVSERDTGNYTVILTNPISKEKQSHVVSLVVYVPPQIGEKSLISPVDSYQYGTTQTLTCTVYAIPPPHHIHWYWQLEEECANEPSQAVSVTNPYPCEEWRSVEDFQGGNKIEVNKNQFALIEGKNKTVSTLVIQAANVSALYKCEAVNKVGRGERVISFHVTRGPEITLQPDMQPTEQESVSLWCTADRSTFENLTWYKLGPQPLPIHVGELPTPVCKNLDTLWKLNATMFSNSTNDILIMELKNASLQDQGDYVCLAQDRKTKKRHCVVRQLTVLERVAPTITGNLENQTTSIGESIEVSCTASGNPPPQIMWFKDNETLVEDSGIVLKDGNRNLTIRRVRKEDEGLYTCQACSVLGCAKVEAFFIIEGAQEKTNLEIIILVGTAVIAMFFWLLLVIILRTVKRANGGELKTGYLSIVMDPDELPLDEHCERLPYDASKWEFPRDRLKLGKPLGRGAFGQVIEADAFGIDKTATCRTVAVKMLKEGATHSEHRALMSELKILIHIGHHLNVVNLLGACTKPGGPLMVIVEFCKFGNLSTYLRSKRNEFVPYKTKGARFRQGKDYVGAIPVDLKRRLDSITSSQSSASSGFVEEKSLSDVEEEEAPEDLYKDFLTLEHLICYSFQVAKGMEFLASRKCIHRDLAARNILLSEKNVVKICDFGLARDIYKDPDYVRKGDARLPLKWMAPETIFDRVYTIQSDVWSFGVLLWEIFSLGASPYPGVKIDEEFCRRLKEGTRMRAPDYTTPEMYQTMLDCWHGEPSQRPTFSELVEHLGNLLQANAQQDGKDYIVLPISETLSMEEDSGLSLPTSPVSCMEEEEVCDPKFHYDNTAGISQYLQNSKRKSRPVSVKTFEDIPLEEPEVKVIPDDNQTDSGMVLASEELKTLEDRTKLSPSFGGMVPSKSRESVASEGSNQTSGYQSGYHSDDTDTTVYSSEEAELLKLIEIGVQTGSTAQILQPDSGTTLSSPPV

As for “GST-Ex 7 fusion protein (GST fused to the 44 amino acids encoded by VEGF exon 7 plus the first cysteine of exon 8) (from UniProt P08515 1-218)”, the percent inhibition of 125I-VEGF165 binding in assay [1] was 80%.

Regarding “GST-Ex 7+8 fusion protein (GST fused to the VEGF165 exons 7- and 8-encoded peptide) (from UniProt P15692 187-191)”, the percent inhibition of 125I-VEGF165 binding was in the range of 97 to 98% in assay [2] and 85 to 95% in assay [3].

B1: Human recombinant VEGF121 (ligand, UniProt P15692-9 27-147, looked up)
chain: APMAEGGGQNHHEVVKFMDVYQRSYCHPIETLVDIFQEYPDEIEYIFKPSCVPLMRCGGCCNDEGLECVPTEESNITMQIMRIKPHQGQHIGEMSFLQHNKCECRPKKDRARQEKCDKPRR
modifications: radioiodinated (125I, IODO-BEADS) in the cross-linking assays
Consider B1, for which the “fold decrease in VEGF121-mediated HUVEC proliferation with 15 ug/ml GST-Ex 7+8” value with KDR/Flk-1 is roughly 2 fold.
